Test results as given in patent US20230121197A1, “ANTIBODIES SPECIFICALLY BINDING THE CARBOXYMETHYLATED CATALYTIC SUBUNIT OF PROTEIN PHOSPHATASE 2A” (Medizinische Universität Wien, priority 2020, published 2023).

Experiments:
[1] = molecular target: T1, PP4c C-terminal peptide meL307, ac-PSKKPVADYFL-CH3 (α-carboxymethylated) (human, SMILES …); assay: ELISA, peptide coated at 2 µg/ml, hybridoma supernatant 1:50, values normalized to meL309, N=7
T1 construct: also called mePP4c; PP4 Me
T1 peptide: Ac-PSKKPVADYFL-OMe
Text: (§1) FIG. 9: Monoclonal antibody 7C10-C5 detects α-carboxymethylated PP2Ac C-terminal peptides with >10-fold higher signal intensity than the α-carboxymethylated PP4c and PP6c C-terminal peptides in ELISA. Nunc Medisorp 96-well ELISA flat-bottom plates were coated with PP2Ac peptides L309 (ac-[…]) (SEQ ID NO:18), meL309 (ac-[…]-CH3) (SEQ ID NO:18), PP4c peptides L307 (ac-[…]) (SEQ ID NO:20), meL307 (ac-[…]-CH₃) (SEQ ID NO:20), PP6c peptides L305 (ac-[…]) (SEQ ID NO:22) or meL305 (ac-[…]-CH₃) (SEQ ID NO:22) at 2 μg/ml in TBS or TBS only (Neg) at 4° C. over-night. After washing once with TBS, the wells were incubated with 2% BSA in TBS for 1 h at RT. After washing once with TBS, the wells were incubated with single clone hybridoma cell culture supernatant, clone 7C10-C5 1:50 for 1 h at RT. After washing twice with TBS, wells were incubated with anti-mouse and anti rabbit HRP-coupled secondary antibody for 1 h at RT, followed by washing 3× in PBS. Bound antibodies were detected by colorimetric reaction with 3,3′,5,5′-Tetramethylbenzidine as substrate, and absorbance was measured at 450 nm. Values were normalized to meL309 which was set to 1. Average and standard deviation of N=7 experiments are shown. […] Statistical significance was assessed using ANOVA followed by Tukey's HSD as a post-hoc test. […]

[2] = molecular target: T2, PP6c C-terminal peptide meL305, ac-IPPRTTTPYFL-CH3 (α-carboxymethylated) (human, SMILES …); assay: as above
T2 construct: also called PP6 meLeu305
T2 peptide: Ac-IPPRTTTPYFL-OMe
Text: as §1

[3] = molecular target: T3, PP4c peptides L307, meL307 (Homo sapiens, UniProt P60510); assay: ELISA with PP4c C-terminal undecapeptides; type: binding
T3 construct: carboxymethylated versus non-methylated PP2Ac, PP4c and PP6c C-terminal undecapeptides
Protocol: To further characterize the carboxymethyl-PP2Ac specificity of monoclonal antibody 7C10-C5 ELISAs were performed on carboxymethylated versus non-methylated PP2Ac, PP4c and PP6c C-terminal undecapeptides.
Specifically, flat-bottom Nunc-Immuno Medisorp 96-well ELISA plates (Thermo; 467320) were coated o/n at 4° C. with 50 μl of either a peptide of the sequence ac-HVTRRTPDYFL-OH (L309) (SEQ ID NO:18) at a concentration of 2 μg/ml in TBS (137 mM NaCl (AppliChem, #131659, 2.7 mM KCl (AppliChem, #131494), 24.8 mM Tris (AppliChem, #A1086), pH 7.4 with HCl), a peptide of the sequence ac-HVTRRTPDYFL-CH3 (meL309) (SEQ ID NO:18) 2 μg/ml in TBS, with a peptide of the sequence (ac-PSKKPVADYFL (L307) (SEQ ID NO:20) at a concentration of 2 μg/ml in TBS or with a peptide of the sequence ac-PSKKPVADYFL-CH3 (meL307) (SEQ ID NO:20) at a concentration of 2 μg/ml in TBS, with a peptide of the sequence ac-IPPRTTTPYFL (L305) (SEQ ID NO:22) at a concentration of 2 μg/ml in TBS or with a peptide of the sequence ac-IPPRTTTPYFL-CH3 (meL305) (SEQ ID NO:22) at a concentration of 2 μg/ml in TBS. […] Bound antibodies were detected colorimetrically by addition of 50 μl of 33 μg/ml […] (TMB) (Sigma, T2885) in 0.1 M sodium acetate pH 6.0 and 0.01% H2O2 (Sigma, H1009). […] The results from 560 nm read were subtracted from the 450 nm read.

B1: 7C10-C5 monoclonal antibody (antibody, V domains shown)
VH: DVQLQESGPGLVKPSQSLSLTCSVTGYSITSGYYWNWIRQFPGNKLEWMGYISYDGSNNYNPSLKNRISITRDTSKNQFFLKLNSVTTEDTATYYCAGRFAYWGQGTLVTVSA
VL: DVLMTQTPLSLPVSLGDQASISCRSSQSIVHSNGNTYLEWYLQKPGQSPKLLIYKVSNRFSGVPDRFSGSGSGTDFTLKINRVEAEDLGVYYCFQGSHVPWTFGGGTKLEIK
notes: Used as hybridoma culture supernatant (ELISA, Western blot, IHC) or at 50 µg/mL (SPR); also called 7C10 X63; clone 7C10-C5
Q: With B1 as the molecule, how does the “fold-change of ELISA signal, meL309 (PP2A) over meL307 (PP4)” value [1] read?
A: The value was 10.1 fold.

Q: And the “fold-change of ELISA signal, meL309 (PP2A) over meL305 (PP6)” value [2]?
A: The value was 16.2 fold.

B2: 7C10-C5: α-carboxymethylation specific mouse monoclonal IgG1 antibody from single clone hybridoma 7C10-C5 (DSM ACC3350) (antibody)
heavy: MYRMQLLSCIALSLALVTNSDVQLQESGPGLVKPSQSLSLTCSVTGYSITSGYYWNWIRQFPGNKLEWMGYISYDGSNNYNPSLKNRISITRDTSKNQFFLKLNSVTTEDTATYYCAGRFAYWGQGTLVTVSAAKTTAPSVYPLAPVCGDTTGSSVTLGCLVKGYFPEPVTLTWNSGSLSSGVHTFPAVLQSDLYTLSSSVTVTSSTWPSQSITCNVAHPASSTKVDKKIEPRGPTIKPCPPCKCPAPNLLGGPSVFIFPPKIKDVLMISLSPIVTCVVVDVSEDDPDVQISWFVNNVEVHTAQTQTHREDYNSTLRVVSALPIQHQDWMSGKEFKCKVNNKDLPAPIERTISKPKGSVRAPQVYVLPPPEEEMTKKQVTLTCMVTDFMPEDIYVEWTNNGKTELNYKNTEPVLDSDGSYFMYSKLRVEKKNWVERNSYSCSVVHEGLHNHHTTKSFSRTPGK
light: MDMRVPAQLLGLLLLWLSGARCDVLMTQTPLSLPVSLGDQASISCRSSQSIVHSNGNTYLEWYLQKPGQSPKLLIYKVSNRFSGVPDRFSGSGSGTDFTLKINRVEAEDLGVYYCFQGSHVPWTFGGGTKLEIKADAAPTVSIFPPSSEQLTSGGASVVCFLNNFYPKDINVKWKIDGSERQNGVLNSWTDQDSKDSTYSMSSTLTLTKDEYERHNSYTCEATHKTSTSPIVKSFNRNEC
modifications: Amino acid sequence of the recombinant 7C10-C5 heavy chain; Amino acid sequence of the recombinant 7C10-C5 light chain
Q: With B2 as the molecule, how does the “carboxymethylated versus non-carboxymethylated PP4c peptide signal” value [3] read?
A: The value was “No significant difference”.
